From the supplement of paper PMC11780869

Tested on: Bacillus subtilis
Assay: cleaved RNA product abundance (RNA/gDNA barcode ratio) relative to median wild-type variant (ratio to wild type); higher = more accumulation of the downstream cleavage product
Conditions: cleavage site: cggR-gapA (positions -7 to +36 mutated)
Procedure: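 MPRA in B. subtilis. Mutagenized RNase Y cleavage-site regions (9% mutation rate) were inserted into a barcoded reporter mRNA (truncated aprE or tetM). Cells were grown in LB at 37°C to OD600 0.3. The cleaved RNA isoform was gel-purified and its barcodes counted; the RNA:gDNA barcode ratio was normalised to the median wild-type variant, and the median over barcodes is reported per variant. The printed sequence is the variable window only; the reporter flanks are not printed.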

[1] = experiment (reporter, strain, medium): exp 2b: truncated aprE reporter, strain BJT200
[2] = experiment (reporter, strain, medium): exp 4a: truncated aprE reporter, strain BJT201 with 2% xylose (RNase J1 expressed)
[3] = experiment (reporter, strain, medium): exp 6: tetM reporter, strain 168

Sequence | cleaved RNA product abundance [1] | cleaved RNA product abundance [2] | cleaved RNA product abundance [3]
ACAGACGAAGGAGCCGCAAAGAACTTATTAAGGGATGAATAATCCCTCAAGATAAATATCTCTCACTTATTTAAA | 0.165 | 0.185 | 
ACAGACGAAGGAGCCGCAAAGAACTTATTAAGGGATGAATAATCCCTCAATATAAACATCTCTCACTTATTTAAA |  | 0.348 | 
ACAGACGAAGGAGCCGCAAAGAACTTATTAAGGGATGAATAATCCCTCAATATAAATAACTCTCACTTATTTAAA | 0.444 | 0.566 | 
ACAGACGAAGGAGCCGCAAAGAACTTATTAAGGGATGAATAATCCCTCAATATAAATATCTCTCACTTATTTAAA | 0.448 | 0.509 | 0.575
ACAGACGAAGGAGCCGCAAAGAACTTATTAAGGGATGAATAATCCCTCAATATAAATATTTCTCACTTATTTAAA |  | 0.307 | 
ACAGACGAAGGAGCCGCAAAGAACTTATTAAGGGATGAATAATCCCTCAATATATATATCTCTCACTTATTTAAA |  | 0.454 | 
ACAGACGAAGGAGCCGCAAAGAACTTATTAAGGGATGAATAATCCCTCAGTATAAATATCTCTCACTTATTTAAA | 0.128 | 0.309 | 
ACAGACGAAGGAGCCGCAAAGAACTTATTAAGGGATGAATAATCCCTCCATATAAATATCTCTCACTTATTTAAA |  | 0.28 | 
ACAGACGAAGGAGCCGCAAAGAACTTATTAAGGGATGAATAATCCCTCGATATAAATATCTCTCACTTATTTAAA |  | 0.269 | 
ACAGACGAAGGAGCCGCAAAGAACTTATTAAGGGATGAATAATCCCTCTATATAAATATCTCTCACTTATTTAAA |  | 0.332 | 
ACAGACGAAGGAGCCGCAAAGAACTTATTAAGGGATGAATAATCCCTGAATATAAATATCTCTCACTTATTTAAA | 0.264 | 0.213 | 
ACAGACGAAGGAGCCGCAAAGAACTTATTAAGGGATGAATAATCCCTTAATATAAATATCTCTCACTTATTTAAA |  | 0.369 | 0.271
ACAGACGAAGGAGCCGCAAAGAACTTATTAAGGGATGAATAATCCGTCAATATAAATATCTCTCACTTATTTAAA |  | 0.155 | 
ACAGACGAAGGAGCCGCAAAGAACTTATTAAGGGATGAATAATCCTTCAATATAAATATCTCTCACTTATTTAAA |  | 0.342 | 
ACAGACGAAGGAGCCGCAAAGAACTTATTAAGGGATGAATAATCTCTCAATATAAATATCTCTCACTTATTTAAA |  | 0.418 | 
ACAGACGAAGGAGCCGCAAAGAACTTATTAAGGGATGAATAATTCATCAATATAAATATCTCTCACTTATTTAAA |  | 0.372 | 
ACAGACGAAGGAGCCGCAAAGAACTTATTAAGGGATGAATAATTCCTCAATATAAATATCTCTCACTTATTTAAA | 0.315 | 0.32 | 
ACAGACGAAGGAGCCGCAAAGAACTTATTAAGGGATGAATCATCCCTCAATATAAATATCTCTCACTTATTTAAA |  | 0.36 | 
ACAGACGAAGGAGCCGCAAAGAACTTATTAAGGGATGAATGATCCCTCAATATAAATATCTCTCACTTATTTAAA |  | 0.282 | 
ACAGACGAAGGAGCCGCAAAGAACTTATTAAGGGATGAATTATCCCACAATATAAATATCTCTCACTTATTTAAA |  | 0.17 | 
ACAGACGAAGGAGCCGCAAAGAACTTATTAAGGGATGAATTATCCCTCAATATAAATATCTCTCACTTATTTAAA | 0.284 | 0.31 | 
ACAGACGAAGGAGCCGCAAAGAACTTATTAAGGGATGACTAATCCCTCAATATAAATATCTCTCACTTATTTAAA |  | 0.382 | 
ACAGACGAAGGAGCCGCAAAGAACTTATTAAGGGATGAGTAATCCCTCAATATAAATATCTCTCACTTATTTAAA |  | 0.421 | 

Sequence | cleaved RNA product abundance [1] | cleaved RNA product abundance [2] | cleaved RNA product abundance [3]
ACAGACGAAGGAGCCGCAAAGAACTTATTAAGGGATGTATAATCCCTCAATATAAATATCTCTCACTTATTTAAA |  | 0.637 | 
ACAGACGAAGGAGCCGCAAAGAACTTATTAAGGGATTAATAATCCCTCAATATAAATATCTCTCACTTATTTAAA |  | 0.621 | 
ACAGACGAAGGAGCCGCAAAGAACTTATTAAGGGGTGAATAATCCCTCAATATAAATATCTCTCACTTATTTAAA |  | 0.411 | 
ACAGACGAAGGAGCCGCAAAGAACTTATTAAGGGTTGAATAATCCCTCAATATAAATATCTCTCACTTATTTAAA | 0.218 | 0.232 | 
ACAGACGAAGGAGCCGCAAAGAACTTATTAAGGTATGAATAATCCCTCAATATAAATATCTCTCACTTATTTAAA | 0.0959 | 0.108 | 
ACAGACGAAGGAGCCGCAAAGAACTTATTAAGTGATGAATAATCCCTCAATATAAATATCTCTCACTTATTTAAA |  | 0.0735 | 
ACAGACGAAGGAGCCGCAAAGAACTTATTAATGGATGAATAATCCCTCAATATAAATATCTCTCACTTATTTAAA | 0.102 | 0.142 | 
ACAGACGAAGGAGCCGCAAAGAACTTATTACGGGATGAATAATCCCTCAATATAAATATCTCTCACTTATTTAAA |  | 0.248 | 
ACAGACGAAGGAGCCGCAAAGAACTTATTATGGGATGAATAATCCCTCAATATAAATATCTCTCACTTATTTAAA |  | 0.233 | 
ACAGACGAAGGAGCCGCAAAGAACTTATTCAGGGATGAATAATCCCTCAATATAAATATCTCTCACTTATTTAAA |  | 0.525 | 
ACAGACGAAGGAGCCGCAAAGAACTTATTTAGGGATGAATAATCCCTCAATATAAATATCTCTCACTTATTTAAA | 0.442 | 0.321 | 
ACAGACGAAGGAGCCGCAAAGAACTTTTTAAGGGATGAATAATCCCTCAATATAAATATCTCTCACTTATTTAAA | 0.204 |  | 
ACAGACGAAGGAGCCGCAAAGAAGAAATTAAGGGATGAATAATCCCTCAATATAAATATCTCTCACTTATTTAAA | 0.171 | 0.185 | 
ACAGACGAAGGAGCCGCAAAGAAGAAATTAAGGGATGAATAATTCCTCAATATAAATATCTCTCACTTATTTAAA |  | 0.129 | 
ACAGACGAAGGAGCCGCAAAGAAGATAATAAGGGATGAATAATCCCTCAATATAAATATCTCTCACTTATTTAAA |  | 0.227 | 
ACAGACGAAGGAGCCGCAAAGAAGATACTAAGGGATGAATAATCCCTCAATATAAATATCTCTCACTTATTTAAA | 0.0772 |  | 
ACAGACGAAGGAGCCGCAAAGAAGATAGTAAGGGATGAATAATCCCTCAATATAAATATCTCTCACTTATTTAAA |  | 0.265 | 
ACAGACGAAGGAGCCGCAAAGAAGATATAAAGGGATGAATAATCCCTCAATATAAATATCTCTCACTTATTTAAA | 0.272 | 0.514 | 
ACAGACGAAGGAGCCGCAAAGAAGATATCAAGGGATGAATAATCCCTCAATATAAATATCTCTCACTTATTTAAA |  | 0.522 | 
ACAGACGAAGGAGCCGCAAAGAAGATATTAAAGGATGAATAATCCCTCAATATAAATATCTCTCACTTATTTAAA | 0.199 | 0.264 | 
ACAGACGAAGGAGCCGCAAAGAAGATATTAACGGATGAATAATCCCTCAATATAAATATCTCTCACTTATTTAAA |  | 0.207 | 
ACAGACGAAGGAGCCGCAAAGAAGATATTAAGAGATGAATAATCCCTCAATATAAATATCTCTCACTTATTTAAA | 0.128 | 0.221 | 
ACAGACGAAGGAGCCGCAAAGAAGATATTAAGGAATGAATAATCCCTCAATATAAATATCTCTCACTTATTTAAA | 0.12 | 0.175 | 
